Assay results taken from patent publication US20170044259A1 (published 2017).
One block for each binder: values may come before it.

Assays:
[1] = target: T1, human PD-1-Fc (R and D systems, Minneapolis, Minn.) (human, UniProt Q15116 25-167); assay: ELISA; upper left panel
[2] = target: T1, human PD-1-Fc (R and D systems, …); assay: ELISA; lower left panel
[3] = target: T1, human PD-1-Fc (R and D systems, …); assay: ELISA; lower right panel
[4] = target: T1, human PD-1-Fc (R and D systems, …); assay: ELISA; upper right panel
[5] = target: human PD-1-His (R & D systems, Minneapolis, Minn.) (human, UniProt Q15116 25-167); assay: BLI
Chain of human PD-1-His (R & D systems, Minneapolis, Minn.) (Q15116 25-167): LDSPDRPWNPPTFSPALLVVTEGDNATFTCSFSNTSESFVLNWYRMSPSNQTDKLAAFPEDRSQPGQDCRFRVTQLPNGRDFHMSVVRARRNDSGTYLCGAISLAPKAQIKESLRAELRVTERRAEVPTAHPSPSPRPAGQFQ

[6] = target: T1, human PD-1-Fc (R and D systems, …); assay: inhibition ELISA; hPDL-2 Fc blockade
[7] = target: T1, human PD-1-Fc (R and D systems, …); assay: inhibition ELISA; hPDL-1 Fc blockade
[8] = target: T1, human PD-1-Fc (R and D systems, …); assay: inhibition ELISA; hPDL-2 Fc blockade; remark: listed apart in the source
[9] = target: T1, human PD-1-Fc (R and D systems, …); assay: inhibition ELISA; hPDL-1 Fc blockade; remark: listed apart in the source
[10] = target: T1, human PD-1-Fc (R and D systems, …); assay: inhibition ELISA; hPDL-1 Fc blockade; remark: listed apart in the source
[11] = target: T1, human PD-1-Fc (R and D systems, …); assay: inhibition ELISA; hPDL-2 Fc blockade; remark: listed apart in the source
[12] = target: T2, mouse PD-1 expressed on HEK293 cells (mouse, UniProt Q02242 25-288); assay: flow cytometry blocking; blocking of biotin-mPD-L1
T2 chain: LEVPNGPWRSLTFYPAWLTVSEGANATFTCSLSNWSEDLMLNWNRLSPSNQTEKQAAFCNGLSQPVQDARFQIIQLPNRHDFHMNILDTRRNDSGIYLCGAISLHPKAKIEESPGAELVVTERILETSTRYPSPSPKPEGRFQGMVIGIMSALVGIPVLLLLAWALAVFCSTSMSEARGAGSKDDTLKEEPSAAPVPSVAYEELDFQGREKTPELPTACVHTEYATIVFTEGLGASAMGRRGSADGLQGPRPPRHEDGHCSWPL

[13] = target: T2, mouse PD-1 expressed on HEK293 cells; assay: flow cytometry cell binding
[14] = target: T2, mouse PD-1 expressed on HEK293 cells; assay: flow cytometry blocking; blocking of biotin-mPD-L2

T1 sequence (Q15116 25-167): as the sequence (Q15116 25-167) above

- Kd [1]: 9.37 nM
- Kd [2]: 8.4 nM
- Kd [3]: 8.12 nM
- Kd [4]: 7.3 nM
B1: A1.5 PD34 2001 (antibody)
heavy: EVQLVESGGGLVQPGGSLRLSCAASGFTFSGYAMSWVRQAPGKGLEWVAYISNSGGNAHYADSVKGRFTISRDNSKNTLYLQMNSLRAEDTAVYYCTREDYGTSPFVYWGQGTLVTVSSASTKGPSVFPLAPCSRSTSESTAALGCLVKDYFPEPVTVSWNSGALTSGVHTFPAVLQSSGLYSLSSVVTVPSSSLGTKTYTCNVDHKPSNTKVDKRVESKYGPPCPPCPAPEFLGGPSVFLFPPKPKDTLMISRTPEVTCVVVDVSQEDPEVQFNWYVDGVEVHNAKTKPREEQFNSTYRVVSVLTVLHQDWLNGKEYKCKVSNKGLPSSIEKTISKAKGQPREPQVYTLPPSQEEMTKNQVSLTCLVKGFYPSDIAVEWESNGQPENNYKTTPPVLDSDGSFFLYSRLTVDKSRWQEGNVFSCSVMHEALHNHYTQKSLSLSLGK
light: QGQSGQGTSYCSIEHYPCNTHHGGGSSGGSISSGLLSGRSDNHGGGSDIQLTQSPSSLSASVGDRVTITCRASESVDAYGISFMNWFQQKPGKAPKLLIYAASNQGSGVPSRFSGSGSGTDFTLTISSMQPEDFATYYCQQSKDVPWTFGQGTKLEIKRTVAAPSVFIFPPSDEQLKSGTASVVCLLNNFYPREAKVQWKVDNALQSGNSQESVTEQDSKDSTYSLSSTLTLSKADYEKHKVYACEVTHQGLSSPVTKSFNRGEC

- Kd [5]: 12.4 nM
- IC50 [6]: 3.07 nM
- IC50 [7]: 3.73 nM
- IC50 [8]: 1.2 nM
- IC50 [9]: 1.32 nM
B2: C1.1 (antibody, V domains shown)
VH: EVQLVESGGGLVQPGGSLRLSCAASGFTFSNYAMSWVRQAPGKGLEWVAYISNGGGDTHYADSLKGRFTVSRDNSKNTLYLQMNSLRAEDTAVYYCARENYGTSPFVYWGQGTLVTVSS
VL: DIQLTQSPSSLSVSVGDRATITCRASESVDNYGISFMNWFQQKPGKAPKLLIYAASNQGSGVPSRFSGSGSGTDFTLTISSMQPEDFATYYCQQSKDVPWTFGQGTKLEIKR

- IC50 [10]: 1.85 nM
- IC50 [11]: 1.04 nM
B3: A1.0 (antibody, V domains shown)
VH: EVQLVESGGGLVQPGGSLRLSCAASGFTFSGYAMSWVRQAPGKGLEWVAYISNSGGNAHYADSVKGRFTISRDNSKNTLYLQMNSLRAEDTAVYYCTREDYGTSPFVYWGQGTLVTVSS
VL: DIQLTQSPSSLSASVGDRVTITCRASESVDNYGISFMNWFQQKPGKAPKLLIYAASNQGSGVPSRFSGSGSGTDFTLTISSMQPEDFATYYCQQSKDVPWTFGQGTKLEIKR

- IC50 [10]: 1.55 nM
- IC50 [11]: 1.01 nM
B4: A1.2 (antibody, V domains shown)
VH: EVQLVESGGGLVQPGGSLRLSCAASGFTFSGYAMSWVRQAPGKGLEWVAYISNSGGNAHYADSVKGRFTISRDNSKNTLYLQMNSLRAEDTAVYYCTREDYGTSPFVYWGQGTLVTVSS
VL: DIQLTQSPSSLSASVGDRVTITCRASESVDQYGISFMNWFQQKPGKAPKLLIYAASNQGSGVPSRFSGSGSGTDFTLTISSMQPEDFATYYCQQSKDVPWTFGQGTKLEIKR

- IC50 [10]: 1.92 nM
- IC50 [11]: 1.29 nM
B5: A1.4 (antibody, V domains shown)
VH: EVQLVESGGGLVQPGGSLRLSCAASGFTFSGYAMSWVRQAPGKGLEWVAYISNSGGNAHYADSVKGRFTISRDNSKNTLYLQMNSLRAEDTAVYYCTREDYGTSPFVYWGQGTLVTVSS
VL: DIQLTQSPSSLSASVGDRVTITCRASESVDSYGISFMNWFQQKPGKAPKLLIYAASNQGSGVPSRFSGSGSGTDFTLTISSMQPEDFATYYCQQSKDVPWTFGQGTKLEIKR

- Kd [4]: 4.36 nM
B6: PD-1 1.5 PD017 2001 (antibody)
heavy: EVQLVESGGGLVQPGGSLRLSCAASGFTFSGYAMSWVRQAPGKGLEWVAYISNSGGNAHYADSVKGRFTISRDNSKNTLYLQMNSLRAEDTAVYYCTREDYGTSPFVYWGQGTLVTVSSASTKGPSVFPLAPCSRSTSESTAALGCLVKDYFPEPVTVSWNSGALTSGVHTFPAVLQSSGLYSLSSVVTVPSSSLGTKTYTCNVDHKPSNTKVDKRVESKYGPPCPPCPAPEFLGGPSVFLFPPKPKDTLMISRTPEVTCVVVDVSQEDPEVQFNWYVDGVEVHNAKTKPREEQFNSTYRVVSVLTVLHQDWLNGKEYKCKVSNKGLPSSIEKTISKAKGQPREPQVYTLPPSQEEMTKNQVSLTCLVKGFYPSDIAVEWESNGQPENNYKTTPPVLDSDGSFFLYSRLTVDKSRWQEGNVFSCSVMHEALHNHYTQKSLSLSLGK
light: QGQSGQGTTCNLYQQSSMFCNAGGGSSGGSISSGLLSGRSDNHGGGSDIQLTQSPSSLSASVGDRVTITCRASESVDAYGISFMNWFQQKPGKAPKLLIYAASNQGSGVPSRFSGSGSGTDFTLTISSMQPEDFATYYCQQSKDVPWTFGQGTKLEIKRTVAAPSVFIFPPSDEQLKSGTASVVCLLNNFYPREAKVQWKVDNALQSGNSQESVTEQDSKDSTYSLSSTLTLSKADYEKHKVYACEVTHQGLSSPVTKSFNRGEC

- EC50 [12]: 6.06 nM
- EC50 [13]: 4.31 nM
- EC50 [14]: 5.9 nM
B7: J43v2 mIgG2a (antibody, V domains shown)
VH: EVRLLESGGGLVKPEGSLKLSCVASGFTFSDYFMSWVRQAPGKGLEWVAHIYTKSYNYATYYSGSVKGRFTISRDDSRSMVYLQMNNLRTEDTATYYCTRDGSGYPSLDFWGQGTQVTVSS
VL: YELTQPPSASVNVGETVKITCSGDQLPKYFADWFHQRSDQTILQVIYDDNKRPSGIPERISGSSSGTTATLTIRDVRAEDEGDYYCFSGYVDSDSKLYVFGSGTQLTVLG

- Kd [5]: 1.48 nM
- IC50 [6]: 2.94 nM
- Kd [1]: 0.162 nM
- IC50 [7]: 4.25 nM
- Kd [2]: 0.16 nM
- Kd [3]: 0.176 nM
- Kd [4]: 0.18 nM
- IC50 [9]: 1.4 nM
B8: A1.5 (antibody)
heavy: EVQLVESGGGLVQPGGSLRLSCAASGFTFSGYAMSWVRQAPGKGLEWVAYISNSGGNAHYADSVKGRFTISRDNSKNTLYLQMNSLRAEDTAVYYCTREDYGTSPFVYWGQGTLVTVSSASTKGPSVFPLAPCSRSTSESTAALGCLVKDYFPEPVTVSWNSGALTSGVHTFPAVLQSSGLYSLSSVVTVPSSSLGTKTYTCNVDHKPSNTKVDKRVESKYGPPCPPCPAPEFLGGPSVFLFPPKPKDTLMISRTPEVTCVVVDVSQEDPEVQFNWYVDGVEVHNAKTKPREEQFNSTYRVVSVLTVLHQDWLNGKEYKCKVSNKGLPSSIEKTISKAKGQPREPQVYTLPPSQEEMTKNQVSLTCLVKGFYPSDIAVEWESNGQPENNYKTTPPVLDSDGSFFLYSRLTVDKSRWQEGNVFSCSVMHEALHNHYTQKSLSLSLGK
light: DIQLTQSPSSLSASVGDRVTITCRASESVDAYGISFMNWFQQKPGKAPKLLIYAASNQGSGVPSRFSGSGSGTDFTLTISSMQPEDFATYYCQQSKDVPWTFGQGTKLEIKRTVAAPSVFIFPPSDEQLKSGTASVVCLLNNFYPREAKVQWKVDNALQSGNSQESVTEQDSKDSTYSLSSTLTLSKADYEKHKVYACEVTHQGLSSPVTKSFNRGEC

- Kd [1]: 5.66 nM
B9: PD-1 1.5 PD006 2001 (antibody)
heavy: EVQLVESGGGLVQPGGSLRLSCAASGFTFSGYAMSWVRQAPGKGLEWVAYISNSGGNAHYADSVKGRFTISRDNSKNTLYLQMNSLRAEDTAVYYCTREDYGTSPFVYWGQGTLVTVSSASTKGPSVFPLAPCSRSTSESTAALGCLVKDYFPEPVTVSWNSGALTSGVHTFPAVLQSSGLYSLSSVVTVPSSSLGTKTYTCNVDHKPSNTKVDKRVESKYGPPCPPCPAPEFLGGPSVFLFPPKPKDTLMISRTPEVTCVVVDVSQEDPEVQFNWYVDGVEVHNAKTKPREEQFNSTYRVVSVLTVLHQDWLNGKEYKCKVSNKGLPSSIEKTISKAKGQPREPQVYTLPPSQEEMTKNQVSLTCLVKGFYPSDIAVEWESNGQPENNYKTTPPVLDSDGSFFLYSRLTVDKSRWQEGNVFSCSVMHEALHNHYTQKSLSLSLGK
light: QGQSGQGAPRCYMFASYCKSQYGGGSSGGSISSGLLSGRSDNHGGGSDIQLTQSPSSLSASVGDRVTITCRASESVDAYGISFMNWFQQKPGKAPKLLIYAASNQGSGVPSRFSGSGSGTDFTLTISSMQPEDFATYYCQQSKDVPWTFGQGTKLEIKRTVAAPSVFIFPPSDEQLKSGTASVVCLLNNFYPREAKVQWKVDNALQSGNSQESVTEQDSKDSTYSLSSTLTLSKADYEKHKVYACEVTHQGLSSPVTKSFNRGEC

- Kd [1]: 0.399 nM
B10: PD-1 1.5 PD009 2001 (antibody)
heavy: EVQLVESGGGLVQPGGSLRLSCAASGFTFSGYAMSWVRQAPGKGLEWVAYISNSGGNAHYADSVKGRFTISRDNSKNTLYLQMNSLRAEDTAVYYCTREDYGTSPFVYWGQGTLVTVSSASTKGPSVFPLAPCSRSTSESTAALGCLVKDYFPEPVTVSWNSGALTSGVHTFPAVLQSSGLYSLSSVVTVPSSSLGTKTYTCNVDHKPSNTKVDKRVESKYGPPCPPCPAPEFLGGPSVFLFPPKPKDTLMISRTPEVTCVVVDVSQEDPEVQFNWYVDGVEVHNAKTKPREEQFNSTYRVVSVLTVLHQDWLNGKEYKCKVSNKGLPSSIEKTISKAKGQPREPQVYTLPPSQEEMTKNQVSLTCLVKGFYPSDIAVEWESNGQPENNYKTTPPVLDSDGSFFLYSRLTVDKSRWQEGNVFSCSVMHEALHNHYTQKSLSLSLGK
light: QGQSGQGAPRTCYTYQCSSFYTGGGSSGGSISSGLLSGRSDNHGGGSDIQLTQSPSSLSASVGDRVTITCRASESVDAYGISFMNWFQQKPGKAPKLLIYAASNQGSGVPSRFSGSGSGTDFTLTISSMQPEDFATYYCQQSKDVPWTFGQGTKLEIKRTVAAPSVFIFPPSDEQLKSGTASVVCLLNNFYPREAKVQWKVDNALQSGNSQESVTEQDSKDSTYSLSSTLTLSKADYEKHKVYACEVTHQGLSSPVTKSFNRGEC

- Kd [4]: 1.74 nM
B11: PD-1 1.5 PD012 2001 (antibody)
heavy: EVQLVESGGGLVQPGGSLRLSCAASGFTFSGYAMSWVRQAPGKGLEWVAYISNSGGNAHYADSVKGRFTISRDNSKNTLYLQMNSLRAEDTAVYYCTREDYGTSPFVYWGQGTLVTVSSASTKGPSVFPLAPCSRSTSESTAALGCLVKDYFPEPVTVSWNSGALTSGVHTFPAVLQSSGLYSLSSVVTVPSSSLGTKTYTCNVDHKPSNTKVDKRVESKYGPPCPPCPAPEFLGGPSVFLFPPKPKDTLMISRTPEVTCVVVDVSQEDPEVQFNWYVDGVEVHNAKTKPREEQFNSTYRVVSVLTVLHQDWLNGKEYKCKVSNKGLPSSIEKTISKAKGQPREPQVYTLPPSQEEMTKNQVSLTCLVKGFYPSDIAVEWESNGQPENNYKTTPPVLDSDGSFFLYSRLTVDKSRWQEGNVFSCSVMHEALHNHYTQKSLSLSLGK
light: QGQSGQGNWLDCQFYSECSVYGGGGSSGGSISSGLLSGRSDNHGGGSDIQLTQSPSSLSASVGDRVTITCRASESVDAYGISFMNWFQQKPGKAPKLLIYAASNQGSGVPSRFSGSGSGTDFTLTISSMQPEDFATYYCQQSKDVPWTFGQGTKLEIKRTVAAPSVFIFPPSDEQLKSGTASVVCLLNNFYPREAKVQWKVDNALQSGNSQESVTEQDSKDSTYSLSSTLTLSKADYEKHKVYACEVTHQGLSSPVTKSFNRGEC
